We go through one molecule from US20260286002 (published 2026).

Like-named read-outs stand apart in the source and are kept apart here.

The target of assay [1] is T1, human CD39-His (human, UniProt P49961).
T1 chain: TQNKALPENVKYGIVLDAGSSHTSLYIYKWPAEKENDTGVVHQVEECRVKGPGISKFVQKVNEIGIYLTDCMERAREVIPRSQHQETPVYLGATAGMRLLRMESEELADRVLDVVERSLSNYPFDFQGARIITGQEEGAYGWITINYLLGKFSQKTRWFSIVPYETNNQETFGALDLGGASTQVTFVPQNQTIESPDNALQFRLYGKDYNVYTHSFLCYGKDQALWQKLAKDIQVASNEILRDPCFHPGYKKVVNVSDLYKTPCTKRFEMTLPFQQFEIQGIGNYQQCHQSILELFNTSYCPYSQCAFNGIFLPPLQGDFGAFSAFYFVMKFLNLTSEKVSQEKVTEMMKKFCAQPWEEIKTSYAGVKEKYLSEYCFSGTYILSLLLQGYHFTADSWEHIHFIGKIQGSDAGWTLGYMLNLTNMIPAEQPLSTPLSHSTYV
As to the kind of experiment: BLI. In general terms: BLI is a label-free optical method that tracks binding on a fibre tip over time.

For assay [2], the target named is T1, human CD39-His. The assay is described as follows: BLI.

B1: B391-F04 (designed binder)
chain: QLQLVESGGGLVQPGGSLRLSCAASGFTFSNLGMSWYRQAPGKAREWVGSISASGDYTTYQNSVKGRFTISRDNAKNTLYLQMNNLKPEDTGVYYCTRRVDSYPRGQGTQVTVSS
In general, Kd refers to the free concentration of one partner at which half of the binding sites on the other are occupied at equilibrium, for simple one-to-one binding. A low value points to tighter binding. For B1, the Kd in the assay with human CD39-His [1] was 0.398 nM; with human CD39-His [2], 0.255 nM.
